From US11046988B2, “Process for the modification of a glycoprotein using a β-(1,4)-N-acetylgalactosaminyl transferase or a mutant thereof” (Synaffix B.V., priority 2014, dated 2021)

Test system: trimmed trastuzumab (core GlcNAc(Fuc) / core GlcNAc, glycan of formula (1))
Experiment: Glycosyltransfer of sugar derivative to trimmed (Endo S deglycosylated) trastuzumab, MS analysis
Assay type: biochemical
Details: for major heavy chain product, F2-GalNAz transfer to core GlcNAc(Fuc)-substituted trastuzumab: UDP-F2-GalNAz 0.4 mM; for conversion of the starting material into two products: UDP-GalNProSH 2 mM
Description: Trimming of IgG glycans was performed using Endo S from Streptococcus pyogenes (commercially available from Genovis, Lund, Sweden). The IgG (10 mg/mL) was incubated with Endo S (40 U/mL) in 25 mM Tris pH 8.0 for approximately 16 hours at 37° C. The deglycosylated IgG was concentrated and washed with 10 mM MnCl2 and 25 mM Tris-HCl pH 8.0 using an Amicon Ultra-0.5, Ultracel-10 Membrane (Millipore).
Trastuzumab was subjected to the trimming protocol above. Analysis of the trimmed antibody was performed on a JEOL AccuToF equipped with an Agilent 1100 HPLC. Samples (2 μL) were reduced with DTT (2 μL) during 10 min and subsequently diluted with H2O (40 μL) prior to injection. […] The two peaks of heavy chain belonged to one major product (49496 Da, 90% of total heavy chain), resulting from core GlcNAc(Fuc) substituted trastuzumab, and a minor product (49351 Da, ±10% of total heavy chain), resulting from core GlcNac substituted trastuzumab. This is an example of a glycoprotein comprising a glycan according to formula (1).
A solution of 50 μg (modified) IgG, 1 M Tris-HCl pH 8.0, 1 mM EDTA and 30 mM DTT with a total volume of approximately 70 μL was incubated for 20 minutes at 37° C. to reduce the disulfide bridges allowing to analyze both light and heavy chain. If present, azide-functionalities are reduced to amines under these conditions. Reduced samples were washed trice with milliQ using an Amicon Ultra-0.5, Ultracel-10 Membrane (Millipore) and concentrated to 10 μM (modified) IgG. The reduced IgG was analyzed by electrospray ionization time-of-flight (ESI-TOF) on a JEOL AccuTOF. Deconvoluted spectra were obtained using Magtran software.
Enzymatic introduction of galactose derivative (e.g. azido-containing sugar) onto IgG was effected with a GalNAc-transferase or a mutant thereof. The deglycosylated IgG (prepared as described above, 10 mg/mL) was incubated with a modified UDP-galactose derivative (e.g. an azido-modified sugar-UDP derivative) (0.4 mM) and GalNAcT (1 mg/mL) in 10 mM MnCl2 and 25 mM Tris-HCl pH 8.0 for 16 hours at 30° C. The functionalized IgG (e.g. azido-functionalized IgG) was incubated with protein A agarose (40 μL per mg IgG) for 2 hours at 4° C. The protein A agarose was washed three times with PBS and the IgG was eluted with 100 mM glycine-HCl pH 2.7. The eluted IgG was neutralized with 1 M Tris-HCl pH 8.0 and concentrated and washed with PBS using an Amicon Ultra-0.5, Ultracel-10 Membrane (Millipore) to a concentration of 15-20 mg/mL.
Enzymatic introduction of galactose derivative (e.g. thio-containing sugar 21) onto IgG was effected with a GalNAc-transferase or a mutant thereof. The deglycosylated IgG (prepared as described above, 10 mg/mL) was incubated with a modified UDP-galactose derivative (e.g. an thio-modified sugar-UDP derivative) (2 mM) and GalNAcT (0.2 mg/mL) in 10 mM MnCl2 and 50 mM Tris-HCl pH 6.0 for 16 hours at 30° C. The functionalized IgG (e.g. thio-functionalized trastuzumab) was incubated with protein A agarose (40 μL per mg IgG) for 1 hours at rt. The protein A agarose was washed three times with TBS (pH 6.0) and the IgG was eluted with 100 mM glycine-HCl pH 2.5. The eluted IgG was neutralized with 1 M Tris-HCl pH 7.0 and concentrated and washed with 50 mM Tris-HCl pH 6.0 using an Amicon Ultra-0.5, Ultracel-10 Membrane (Millipore) to a concentration of 15-20 mg/mL.

[1] = GalNAcT 1 mg/mL, 10 mM MnCl2, pH 8.0, 16 hours, 30° C.
[2] = UDP-GalNAz 0.4 mM, GalNAcT 1 mg/mL, 10 mM MnCl2, pH 8.0, 16 hours, 30° C.

Molecule | major heavy chain product, F2-GalNAz transfer to core GlcNAc(Fuc)-substituted trastuzumab [1] | major product, F2-GalNBAz transfer to core GlcNAc(Fuc) substituted trastuzumab heavy chain (UDP-F2GalNBAz 7 mM, CeGalNAcT 2 mg/mL, 10 mM MnCl2, pH 8.0, 30° C. overnight) | major product, GalNAz transfer to core GlcNAc(Fuc) substituted trastuzumab [2] | minor product, GalNAz transfer to core GlcNAc substituted trastuzumab [2] | conversion of the starting material into two products (CeGalNAcT 1 mg/mL, overnight) | conversion, GalNBzN3 transfer to core GlcNAc(Fuc) substituted trastuzumab (UDP-GalNBzN3 4 mM, TnGalNAcT 0.7 mg/mL, overnight) | conversion of the starting material into two products (TnGalNAcT 0.2 mg/mL, overnight) | conversion, GalNPyrN3 transfer to core GlcNAc(Fuc) substituted trastuzumab (UDP-GalNPyrN3 4 mM, TnGalNAcT 0.5 mg/mL, overnight)
CeGalNAcT: truncated Caenorhabditis elegans β-(1,4)-GalNAcT, amino acids 30-383 of SEQ ID NO: 2 (SEQ ID NO: 6) | approximately 90 % of total heavy chain | approximately 90 % of total heavy chain | 90 % of total heavy chain | ~10 % of total heavy chain | Full conversion | – | – | –
TnGalNAcT: truncated Trichoplusia ni β-(1,4)-GalNAcT, amino acids 33-421 of SEQ ID NO: 4 (SEQ ID NO: 8) (protein, TnGalNAcT(33-421)) SPLRTYLYTPLYNATQPTLRNVERLAANWPKKIPSNYIEDSEEYSIKNISLSNHTTRASVVHPPSSITETASKLDKNMTIQDGAFAMISPTPLLITKLMDSIKSYVTTEDGVKKAEAVVTLPLCDSMPPDLGPITLNKTELELEWVEKKFPEVEWGGRYSPPNCTARHRVAIIVPYRDRQQHLAIFLNHMHPFLMKQQIEYGIFIVEQEGNKDFNRAKLMNVGFVESQKLVAEGWQCFVFHDIDLLPLDTRNLYSCPRQPRHMSASIDKLHFKLPYEDIFGGVSAMTLEQFTRVNGFSNKYWGWGGEDDDMSYRLKKINYHIARYKMSIARYAMLDHKKSTPNPKRYQLLSQTSKTFQKDGLSTLEYELVQVVQYHLYTHILVNIDERS | approximately 90 % of total heavy chain | – | – | – | – | About 70% | Full conversion | About 50%
